Laboratory results reported in article PMC8517440, “Structural and Catalytic Characterization of TsBGL, a β-Glucosidase From Thermofilum sp. ex4484_79” (Frontiers in Microbiology, 2021).

Experiments:
purified protein [1] = substrate: O=[N+]([O-])c1ccc(O[C@@H]2O[C@H](CO)[C@@H](O)[C@H](O)[C@H]2O)cc1; assay: purified protein; format: biochemical, Thermofilum sp. ex4484_79; conditions: pH 5.0, 90°C, 0.1-6.0 mM substrate, kcat printed 135.1 in Table 2
purified protein [2] = substrate: O=[N+]([O-])c1ccc(O[C@@H]2O[C@H](CO)[C@H](O)[C@H](O)[C@H]2O)cc1; assay: purified protein; format: biochemical, Thermofilum sp. ex4484_79; conditions: pH 5.0, 90°C, table header prints mm^-1, text prints 1.05 mm

B1: TsBGL (Thermofilum sp. ex4484_79) (protein)
chain: MPFPEKFFWGASSSGFQFEMGDPEGKSIDPNTDWFKWVHDETNIRRGVVSGDLPEHGINYWDLFRSDHELAASIGMNAYRIGIEWSRIFPKPTLDVRVGIELDPEGYITRVEVDDKAIEELDLLANKEAVSRYREIILDLRDRGLKVFVCLNHFTLPLWIHDPIACRDTKLKRGPKGWVDKTTILEFAKYSAYMAWSLGNIVDYWVTFNEPMVVTEAGYFQPEVGFPPGLRNISAFKTACLNIANAHVVAYDLIKKYDKVRADDDSPSAAYVGIVHNIVPIKPYSERKLDLKAADLMNYIHNKWILEFIVRGKIDRSLVGREKYLIDKFKDKLDWLGVNYYTRIVLKGKWVPPLISPVPVIPDIVKGYGFNCTPGGRSLDGMPVSDFGWEVYPQGLSDALDIASEYGKPLIVTENGIADSEDNIRPYFLVSHLKVLEEYVEKKKNVYGYLHWALTDNYEWAQGFKMRFGLTDVDLETKERKPRESSEVFKIIASEKTVPEELVEKYPKPIF
notes: synthetic gene in E. coli BL21(DE3) pLysS; N-terminal His6-SUMO tag cut with Ulp1; check)
Q: With B1 as the protein, how does the Km (purified protein [1]) read?
A: 617 µM

Q: And the kcat (purified protein [1])?
A: 136.05 s⁻¹

Q: What about the Km (purified protein [2]) of the same protein?
A: 1054 µM

Q: And the kcat (purified protein [2])?
A: 124 s⁻¹

Q: What about the kcat/Km (purified protein [2]) of the same protein?
A: 118000 M⁻¹ s⁻¹
